Data as given in publication PMC11197762 (Fundamental Research, 2022).

Molecular target: GST-p53, full-length, wild-type (human, UniProt P04637 1-393)
Assay: pull-down

GST-p53, full-length, wild-type, sequence (P04637 whole entry): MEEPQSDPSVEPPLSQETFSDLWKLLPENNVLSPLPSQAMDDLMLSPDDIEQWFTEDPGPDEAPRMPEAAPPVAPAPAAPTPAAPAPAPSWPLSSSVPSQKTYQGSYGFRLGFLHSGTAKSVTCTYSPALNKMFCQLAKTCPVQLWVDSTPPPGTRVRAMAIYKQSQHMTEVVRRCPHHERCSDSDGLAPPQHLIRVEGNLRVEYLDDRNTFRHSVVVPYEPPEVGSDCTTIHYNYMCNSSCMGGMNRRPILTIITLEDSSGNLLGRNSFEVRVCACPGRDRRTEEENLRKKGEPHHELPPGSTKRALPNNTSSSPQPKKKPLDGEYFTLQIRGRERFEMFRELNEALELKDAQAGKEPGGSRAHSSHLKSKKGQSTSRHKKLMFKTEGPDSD

B1: BRD4 basic residue-enriched interaction domain (BID, aa 524-579), purified (domain or fragment)
chain: QLAALSQPQQNKPKKKEKDKKEKKKEKHKRKEEVEENKKSKAKEPPPKKTKKNNSS
binding result: binds
